Experimental data from patent US20030143191A1 (published 2003).

Target: T1, CCR5 (G-protein coupled chemokine receptor) on human PBMC (human, UniProt P51681 1-352)
T1 construct: whole, on cells; The cells were primary PBMC, not transfectants, so the receptor is assigned through the CCR5 agonist MIP-1β; also called G-protein Chemokine Receptor CCR5
Assay: 125I-MIP-1β competition binding on human PBMC cultured 2 days; labelled competitor 0.17 nM 125I-MIP-1β; cells preincubated with supernatant 45 min at 37 °C, then hot ligand 60 min at RT; cell pellet collected by density centrifugation through oil; readout cpm
Description: Human PBMC were purified from whole blood and cultured for 2 days. […] After 60 minutes, cell bound ¹²⁵I-MIP-1 was separated from unbound ¹²⁵I-MIP-1, and the radioactivity determined.
PBMCs were grown, purified, and suspended in calcium buffer as described above in Example 49.

T1 sequence (P51681 whole entry): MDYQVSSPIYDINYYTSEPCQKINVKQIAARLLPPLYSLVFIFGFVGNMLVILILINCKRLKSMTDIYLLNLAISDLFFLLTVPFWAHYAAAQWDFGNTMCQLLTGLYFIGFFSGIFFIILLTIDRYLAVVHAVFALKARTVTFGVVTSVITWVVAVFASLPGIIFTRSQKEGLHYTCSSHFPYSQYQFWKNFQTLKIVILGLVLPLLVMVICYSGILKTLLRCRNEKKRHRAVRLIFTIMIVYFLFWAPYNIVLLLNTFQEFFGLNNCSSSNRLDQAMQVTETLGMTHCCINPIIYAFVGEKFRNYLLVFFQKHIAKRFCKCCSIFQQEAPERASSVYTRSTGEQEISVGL

- binding result: binds
B1: Ckb1 construct 1832 (pC4:MPIFsp.CKB1(G28-N93)), secreted product ck-beta-1 G28-N93 (ligand)
chain: GPYHPSECCFTYTTYKIPRQRIMDYYETNSQCSKPGIVFITKRGHSVCTNPSDKWVQDYIKDMKEN
notes: Non-fusion Ckb1, expressed in mammalian cells from pC4
